Patent US20130315910A1 (Xencor, published 2013)

What was measured:
Assay in all cases: SPR
[1] = molecular target: T1, human FcγRIIb receptor protein (R&D Systems) (human, UniProt P31994 46-217)
T1 construct: Bought protein injected over captured antibody in Biacore; also called CD32b
T1 sequence (looked up): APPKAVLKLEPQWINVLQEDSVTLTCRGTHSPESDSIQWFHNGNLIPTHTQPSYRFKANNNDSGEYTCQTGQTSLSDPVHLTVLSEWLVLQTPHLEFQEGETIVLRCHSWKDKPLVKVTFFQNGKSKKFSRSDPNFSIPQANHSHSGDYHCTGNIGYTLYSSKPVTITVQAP

mFcγRIIb = molecular target: T2, mFcγRIIb (Mus musculus, UniProt P08101)
T2 construct: extracellular region, C-terminal His- and GST-tag; also called mouse FcγRII
T2 sequence (receptor extracellular region, looked up): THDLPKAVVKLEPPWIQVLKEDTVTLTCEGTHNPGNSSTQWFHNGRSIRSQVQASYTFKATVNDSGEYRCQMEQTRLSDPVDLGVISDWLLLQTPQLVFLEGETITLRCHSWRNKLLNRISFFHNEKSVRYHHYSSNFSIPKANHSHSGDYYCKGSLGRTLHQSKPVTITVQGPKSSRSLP

cynoFcγRIIb = molecular target: T3, cynoFcγRIIb (Macaca fascicularis, UniProt A0A140HDP4)
T3 construct: extracellular region, C-terminal His- and GST-tag; also called cynomolgus monkey FcγRIIb
T3 sequence (receptor extracellular region): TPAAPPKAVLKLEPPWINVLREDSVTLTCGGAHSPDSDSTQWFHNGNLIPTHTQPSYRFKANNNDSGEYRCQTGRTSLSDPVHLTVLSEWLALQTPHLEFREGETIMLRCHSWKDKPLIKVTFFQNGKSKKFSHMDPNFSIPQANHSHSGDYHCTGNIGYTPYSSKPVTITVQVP

B1: S239D/H268D/L328Y (antibody, human IgG1, kappa)
heavy: EVQLVESGGGLVKPGGSLKLSCAASGYTFTSYVMHWVRQAPGKGLEWIGYINPYNDGTKYNEKFQGRVTISSDKSISTAYMELSSLRSEDTAMYYCARGTYYYGTRVFDYWGQGTLVTVSSASTKGPSVFPLAPSSKSTSGGTAALGCLVKDYFPEPVTVSWNSGALTSGVHTFPAVLQSSGLYSLSSVVTVPSSSLGTQTYICNVNHKPSNTKVDKKVEPKSCDKTHTCPPCPAPELLGGPDVFLFPPKPKDTLMISRTPEVTCVVVDVSDEDPEVKFNWYVDGVEVHNAKTKPREEQYNSTYRVVSVLTVLHQDWLNGKEYKCKVSNKAYPAPIEKTISKAKGQPREPQVYTLPPSREEMTKNQVSLTCLVKGFYPSDIAVEWESNGQPENNYKTTPPVLDSDGSFFLYSKLTVDKSRWQQGNVFSCSVMHEALHNHYTQKSLSLSPGK
light: DIVMTQSPATLSLSPGERATLSCRSSKSLQNVNGNTYLYWFQQKPGQSPQLLIYRMSNLNSGVPDRFSGSGSGTEFTLTISSLEPEDFAVYYCMQHLEYPITFGAGTKLEIKRTVAAPSVFIFPPSDEQLKSGTASVVCLLNNFYPREAKVQWKVDNALQSGNSQESVTEQDSKDSTYSLSSTLTLSKADYEKHKVYACEVTHQGLSSPVTKSFNRGEC
notes: HuAM4G7 anti-CD19 IgG1 (m1) with these Fc substitutions, EU index; copies: 2 + 2
[1]
  Fold vs WT IgG1: 24.4 fold
  Kd: 60.1 nM
mFcγRIIb
  Fold vs WT IgG1 (Kd): 48.6 fold
cynoFcγRIIb
  Fold vs WT IgG1 (Kd): 22.2 fold

B2: S239D/H268D/L328Y/I332E (antibody, human IgG1, kappa)
heavy: EVQLVESGGGLVKPGGSLKLSCAASGYTFTSYVMHWVRQAPGKGLEWIGYINPYNDGTKYNEKFQGRVTISSDKSISTAYMELSSLRSEDTAMYYCARGTYYYGTRVFDYWGQGTLVTVSSASTKGPSVFPLAPSSKSTSGGTAALGCLVKDYFPEPVTVSWNSGALTSGVHTFPAVLQSSGLYSLSSVVTVPSSSLGTQTYICNVNHKPSNTKVDKKVEPKSCDKTHTCPPCPAPELLGGPDVFLFPPKPKDTLMISRTPEVTCVVVDVSDEDPEVKFNWYVDGVEVHNAKTKPREEQYNSTYRVVSVLTVLHQDWLNGKEYKCKVSNKAYPAPEEKTISKAKGQPREPQVYTLPPSREEMTKNQVSLTCLVKGFYPSDIAVEWESNGQPENNYKTTPPVLDSDGSFFLYSKLTVDKSRWQQGNVFSCSVMHEALHNHYTQKSLSLSPGK
light: DIVMTQSPATLSLSPGERATLSCRSSKSLQNVNGNTYLYWFQQKPGQSPQLLIYRMSNLNSGVPDRFSGSGSGTEFTLTISSLEPEDFAVYYCMQHLEYPITFGAGTKLEIKRTVAAPSVFIFPPSDEQLKSGTASVVCLLNNFYPREAKVQWKVDNALQSGNSQESVTEQDSKDSTYSLSSTLTLSKADYEKHKVYACEVTHQGLSSPVTKSFNRGEC
notes: as for B1
[1]
  Fold vs WT IgG1: 54.1 fold
  Kd: 27.1 nM
mFcγRIIb
  Fold vs WT IgG1 (Kd): 3.04 fold
cynoFcγRIIb
  Fold vs WT IgG1 (Kd): 9.1 fold

B3: S239D/H268E/L328Y (antibody, human IgG1, kappa)
heavy: EVQLVESGGGLVKPGGSLKLSCAASGYTFTSYVMHWVRQAPGKGLEWIGYINPYNDGTKYNEKFQGRVTISSDKSISTAYMELSSLRSEDTAMYYCARGTYYYGTRVFDYWGQGTLVTVSSASTKGPSVFPLAPSSKSTSGGTAALGCLVKDYFPEPVTVSWNSGALTSGVHTFPAVLQSSGLYSLSSVVTVPSSSLGTQTYICNVNHKPSNTKVDKKVEPKSCDKTHTCPPCPAPELLGGPDVFLFPPKPKDTLMISRTPEVTCVVVDVSEEDPEVKFNWYVDGVEVHNAKTKPREEQYNSTYRVVSVLTVLHQDWLNGKEYKCKVSNKAYPAPIEKTISKAKGQPREPQVYTLPPSREEMTKNQVSLTCLVKGFYPSDIAVEWESNGQPENNYKTTPPVLDSDGSFFLYSKLTVDKSRWQQGNVFSCSVMHEALHNHYTQKSLSLSPGK
light: DIVMTQSPATLSLSPGERATLSCRSSKSLQNVNGNTYLYWFQQKPGQSPQLLIYRMSNLNSGVPDRFSGSGSGTEFTLTISSLEPEDFAVYYCMQHLEYPITFGAGTKLEIKRTVAAPSVFIFPPSDEQLKSGTASVVCLLNNFYPREAKVQWKVDNALQSGNSQESVTEQDSKDSTYSLSSTLTLSKADYEKHKVYACEVTHQGLSSPVTKSFNRGEC
notes: as for B1
[1]
  Fold vs WT IgG1: 21.7 fold
  Kd: 67.7 nM
mFcγRIIb
  Fold vs WT IgG1 (Kd): 26.5 fold
cynoFcγRIIb
  Fold vs WT IgG1 (Kd): 5.87 fold

B4: S239D/K326D/L328Y (antibody, human IgG1, kappa)
heavy: EVQLVESGGGLVKPGGSLKLSCAASGYTFTSYVMHWVRQAPGKGLEWIGYINPYNDGTKYNEKFQGRVTISSDKSISTAYMELSSLRSEDTAMYYCARGTYYYGTRVFDYWGQGTLVTVSSASTKGPSVFPLAPSSKSTSGGTAALGCLVKDYFPEPVTVSWNSGALTSGVHTFPAVLQSSGLYSLSSVVTVPSSSLGTQTYICNVNHKPSNTKVDKKVEPKSCDKTHTCPPCPAPELLGGPDVFLFPPKPKDTLMISRTPEVTCVVVDVSHEDPEVKFNWYVDGVEVHNAKTKPREEQYNSTYRVVSVLTVLHQDWLNGKEYKCKVSNDAYPAPIEKTISKAKGQPREPQVYTLPPSREEMTKNQVSLTCLVKGFYPSDIAVEWESNGQPENNYKTTPPVLDSDGSFFLYSKLTVDKSRWQQGNVFSCSVMHEALHNHYTQKSLSLSPGK
light: DIVMTQSPATLSLSPGERATLSCRSSKSLQNVNGNTYLYWFQQKPGQSPQLLIYRMSNLNSGVPDRFSGSGSGTEFTLTISSLEPEDFAVYYCMQHLEYPITFGAGTKLEIKRTVAAPSVFIFPPSDEQLKSGTASVVCLLNNFYPREAKVQWKVDNALQSGNSQESVTEQDSKDSTYSLSSTLTLSKADYEKHKVYACEVTHQGLSSPVTKSFNRGEC
notes: as for B1
[1]
  Fold vs WT IgG1: 13 fold
  Kd: 113 nM
mFcγRIIb
  Fold vs WT IgG1 (Kd): 131 fold
cynoFcγRIIb
  Fold vs WT IgG1 (Kd): 10.2 fold

B5: S239D/L328F/I332E (antibody, human IgG1, kappa)
heavy: EVQLVESGGGLVKPGGSLKLSCAASGYTFTSYVMHWVRQAPGKGLEWIGYINPYNDGTKYNEKFQGRVTISSDKSISTAYMELSSLRSEDTAMYYCARGTYYYGTRVFDYWGQGTLVTVSSASTKGPSVFPLAPSSKSTSGGTAALGCLVKDYFPEPVTVSWNSGALTSGVHTFPAVLQSSGLYSLSSVVTVPSSSLGTQTYICNVNHKPSNTKVDKKVEPKSCDKTHTCPPCPAPELLGGPDVFLFPPKPKDTLMISRTPEVTCVVVDVSHEDPEVKFNWYVDGVEVHNAKTKPREEQYNSTYRVVSVLTVLHQDWLNGKEYKCKVSNKAFPAPEEKTISKAKGQPREPQVYTLPPSREEMTKNQVSLTCLVKGFYPSDIAVEWESNGQPENNYKTTPPVLDSDGSFFLYSKLTVDKSRWQQGNVFSCSVMHEALHNHYTQKSLSLSPGK
light: DIVMTQSPATLSLSPGERATLSCRSSKSLQNVNGNTYLYWFQQKPGQSPQLLIYRMSNLNSGVPDRFSGSGSGTEFTLTISSLEPEDFAVYYCMQHLEYPITFGAGTKLEIKRTVAAPSVFIFPPSDEQLKSGTASVVCLLNNFYPREAKVQWKVDNALQSGNSQESVTEQDSKDSTYSLSSTLTLSKADYEKHKVYACEVTHQGLSSPVTKSFNRGEC
notes: as for B1
[1]
  Fold vs WT IgG1: 8.34 fold
  Kd: 176 nM
mFcγRIIb
  Fold vs WT IgG1 (Kd): 2.09 fold
cynoFcγRIIb
  Fold vs WT IgG1 (Kd): 3.09 fold

B6: S239D/L328Y (antibody, human IgG1, kappa)
heavy: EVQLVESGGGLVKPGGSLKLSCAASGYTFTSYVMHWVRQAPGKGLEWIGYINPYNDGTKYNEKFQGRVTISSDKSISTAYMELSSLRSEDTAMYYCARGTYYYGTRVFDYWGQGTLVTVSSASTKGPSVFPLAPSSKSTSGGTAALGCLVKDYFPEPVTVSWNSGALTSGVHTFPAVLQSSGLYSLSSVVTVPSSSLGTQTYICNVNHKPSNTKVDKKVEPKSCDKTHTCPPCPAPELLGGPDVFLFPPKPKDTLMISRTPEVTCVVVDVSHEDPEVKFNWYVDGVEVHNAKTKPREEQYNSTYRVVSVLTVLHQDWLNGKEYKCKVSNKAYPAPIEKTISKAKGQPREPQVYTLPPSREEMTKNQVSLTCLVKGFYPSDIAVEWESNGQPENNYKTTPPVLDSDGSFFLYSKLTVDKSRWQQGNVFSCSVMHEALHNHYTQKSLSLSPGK
light: DIVMTQSPATLSLSPGERATLSCRSSKSLQNVNGNTYLYWFQQKPGQSPQLLIYRMSNLNSGVPDRFSGSGSGTEFTLTISSLEPEDFAVYYCMQHLEYPITFGAGTKLEIKRTVAAPSVFIFPPSDEQLKSGTASVVCLLNNFYPREAKVQWKVDNALQSGNSQESVTEQDSKDSTYSLSSTLTLSKADYEKHKVYACEVTHQGLSSPVTKSFNRGEC
notes: as for B1
[1]
  Fold vs WT IgG1: 5.56 fold
  Kd: 264 nM
mFcγRIIb
  Fold vs WT IgG1 (Kd): 11.5 fold
cynoFcγRIIb
  Fold vs WT IgG1 (Kd): 2.13 fold
